Measured values reported in patent US20220193132A1 (NATIONAL RESEARCH COUNCIL OF CANADA, published 2022).

What was measured:
[1] = target: T1, EGFRvIII, full length, overexpressed on glioblastoma cells (human, UniProt P00533 298-623); assay: cell-based or functional assay
[2] = target: T2, recombinant human EGFRvIII protein (extracellular domain), native (human, UniProt P00533 298-623); assay: ELISA Exp 1, mAb supernatant
T2 construct: also called hEGFRvIII
Description: (§1) Pre- and post-immune sera titers of animals were assessed by ELISA on recombinant EGFRvIII protein. Unless otherwise stated, all incubations were performed at room temperature. […] Microplates were washed three times in PBS and blocked for 30 min with PBS containing 1% bovine serum albumin (BSA, Sigma Cat #A7030). Blocking buffer was removed and 25 μl of serial dilutions of sera samples were added. […] After a 1-h incubation, microplates were washed 4 times and 25 μl of p-nitrophenyl phosphate (pNPP) substrate (Sigma-Aldrich Canada Co., Oakville, ON) at 1 mg/ml in carbonate buffer at pH 9.6 was added and further incubated for 30 min.
(§2) Antigens at 1-2 mg/ml were incubated at 95° C. for 5 min in PBS containing DTT at a final concentration of 40 mM. They were then incubated on ice for 5 min and diluted at their final coating concentration for ELISA purpose.
(§3) ELISA was performed as described above (serum titer determination) using 25 μl of mAb supernatant (Exp 1) or purified mAb at 1 μg/ml (Exp 2).

[3] = target: T3, recombinant human wild type EGFR protein (extracellular domain), native (human, UniProt P00533 25-645); assay: ELISA Exp 1, mAb supernatant
T3 construct: also called wt EGFR; EGFR WT
Description: as §1, §2, §3

[4] = target: T4, recombinant human EGFRvIII protein (extracellular domain), denatured (human, UniProt P00533 298-623); assay: ELISA Exp 1, mAb supernatant
T4 construct: Same protein as m21 after 95 C for 5 min in PBS with 40 mM DTT (denatured, reduced); also called EGFRvIII Denatured
Description: as §1, §2, §3

[5] = target: T5, recombinant human wild type EGFR protein (extracellular domain), denatured (human, UniProt P00533 25-645); assay: ELISA Exp 1, mAb supernatant
T5 construct: Same protein as m23 after 95 C for 5 min in PBS with 40 mM DTT (denatured, reduced); also called wt EGFR Denatured
Description: as §1, §2, §3

[6] = target: T6, EGFRvIII fragment amino acid residues 15 to 37, displayed on yeast (human); assay: yeast surface display, flow cytometry
T6 construct: also called aa 15-37; fragment 15-37
T6 peptide: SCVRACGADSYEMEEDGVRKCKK

[7] = target: T2, recombinant human EGFRvIII protein …; assay: ELISA Exp 2, purified mAb 1 ug/ml;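 note: ELISA of purified mAb binding to plate-coated antigen, native or heat/DTT-denatured, with pNPP substrate developed for 30 min and incubations at room temperature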
Description: as §1, §2, §3

[8] = target: T3, recombinant human wild type EGFR …; assay: ELISA Exp 2, purified mAb 1 ug/ml;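 note: ELISA of purified mAb binding to plate-coated antigen, native or heat/DTT-denatured, with pNPP substrate developed for 30 min and incubations at room temperature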
Description: as §1, §2, §3

[9] = target: T4, recombinant human EGFRvIII protein …; assay: ELISA Exp 2, purified mAb 1 ug/ml;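 note: ELISA of purified mAb binding to plate-coated antigen, native or heat/DTT-denatured, with pNPP substrate developed for 30 min and incubations at room temperature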
Description: as §1, §2, §3

[10] = target: T5, recombinant human wild type EGFR …; assay: ELISA Exp 2, purified mAb 1 ug/ml;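 note: ELISA of purified mAb binding to plate-coated antigen, native or heat/DTT-denatured, with pNPP substrate developed for 30 min and incubations at room temperature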
Description: as §1, §2, §3

[11] = target: T7, EGFRvIII amino acid residues 15 to 37 with Cys20 to Ala mutation (human); assay: yeast display flow cytometry, Myc-normalized;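 note: Anti-EGFRvIII monoclonal antibodies tested by flow cytometry on yeast displaying alanine-substituted fragments, two-color indirect fluorescence with anti-Myc signal tracking fusion protein expression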
T7 construct: mutation is already in the entry
T7 peptide: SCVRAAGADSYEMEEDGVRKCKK
Excerpt: (§4) Assessment of the binding of anti-EGFRvIII mAbs to the fusion proteins expressed on yeast cell surface was done by flow cytometry analysis. Briefly, yeast cells were labeled with both the anti-hEGFRvIII mAb and chicken anti-Myc antibody, the latter being used to monitor the level of expression of the fusion protein. Following a wash step, binding of the primary antibodies is probed by a two-color indirect fluorescence labeling using secondary antibodies specific for mouse and chicken antibodies, respectively.
(§5) To further characterize mAb epitopes within the EGFRvIII 15-37 region, an alanine scan of this region was performed, and modified fragments were expressed at the surface of the yeast. […] The resulting peptides were expressed at the surface of the yeast and each anti-EGFRvIII mAbs was tested on the corresponding yeast mutant strain by flow cytometry analysis. Thus, this assay determined the contribution of each amino acid(s) in the monoclonal antibody binding.

[12] = target: T8, EGFRvIII amino acid residues 15 to 37 with Tyr25 to Ala mutation (human); assay: yeast display flow cytometry, Myc-normalized;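 note: Anti-EGFRvIII monoclonal antibodies tested by flow cytometry on yeast displaying alanine-substituted fragments, two-color indirect fluorescence with anti-Myc signal tracking fusion protein expression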
T8 construct: mutation is already in the entry
T8 peptide: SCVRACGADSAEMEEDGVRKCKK
Excerpt: as §4, §5

[13] = target: T9, EGFRvIII amino acid residues 15 to 37 with Asp30 to Ala mutation (human); assay: yeast display flow cytometry, Myc-normalized;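 note: Anti-EGFRvIII monoclonal antibodies tested by flow cytometry on yeast displaying alanine-substituted fragments, two-color indirect fluorescence with anti-Myc signal tracking fusion protein expression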
T9 construct: mutation is already in the entry
T9 peptide: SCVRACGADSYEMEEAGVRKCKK
Excerpt: as §4, §5

[14] = target: T10, EGFRvIII amino acid residues 15 to 37 with Glu29 to Ala mutation (human); assay: yeast display flow cytometry, Myc-normalized;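 note: Anti-EGFRvIII monoclonal antibodies tested by flow cytometry on yeast displaying alanine-substituted fragments, two-color indirect fluorescence with anti-Myc signal tracking fusion protein expression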
T10 construct: mutation is already in the entry
T10 peptide: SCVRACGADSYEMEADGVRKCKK
Excerpt: as §4, §5

[15] = target: T11, EGFRvIII amino acid residues 15 to 37 with Ser15 to Ala mutation (human); assay: yeast display flow cytometry, Myc-normalized
T11 construct: mutation is already in the entry
T11 peptide: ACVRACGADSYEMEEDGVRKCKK
Excerpt: as §4, §5

[16] = target: T12, EGFRvIII amino acid residues 15 to 37 with Asp23 to Ala mutation (human); assay: yeast display flow cytometry, Myc-normalized
T12 construct: mutation is already in the entry
T12 peptide: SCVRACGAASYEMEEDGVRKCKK
Excerpt: as §4, §5

[17] = target: T13, EGFRvIII amino acid residues 15 to 37 with Ser24 to Ala mutation (human); assay: yeast display flow cytometry, Myc-normalized
T13 construct: mutation is already in the entry
T13 peptide: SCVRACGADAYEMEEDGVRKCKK
Excerpt: as §4, §5

[18] = target: T14, EGFRvIII amino acid residues 15 to 37 with Arg18 to Ala mutation (human); assay: yeast display flow cytometry, Myc-normalized
T14 construct: mutation is already in the entry
T14 peptide: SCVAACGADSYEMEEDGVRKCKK
Excerpt: as §4, §5

[19] = target: T15, EGFRvIII amino acid residues 15 to 37 with Gly21 to Ala mutation (human); assay: yeast display flow cytometry, Myc-normalized
T15 construct: mutation is already in the entry
T15 peptide: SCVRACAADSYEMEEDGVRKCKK
Excerpt: as §4, §5

[20] = target: T16, EGFRvIII amino acid residues 15 to 37 with Lys37 to Ala mutation (human); assay: yeast display flow cytometry, Myc-normalized
T16 construct: mutation is already in the entry
T16 peptide: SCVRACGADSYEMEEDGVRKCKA
Excerpt: as §4, §5

[21] = target: T17, EGFRvIII amino acid residues 15 to 37 with Glu28 to Ala mutation (human); assay: yeast display flow cytometry, Myc-normalized
T17 construct: mutation is already in the entry
T17 peptide: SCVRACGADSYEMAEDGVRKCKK
Excerpt: as §4, §5

[22] = target: T18, EGFRvIII amino acid residues 15 to 37 with Val17 to Ala mutation (human); assay: yeast display flow cytometry, Myc-normalized
T18 construct: mutation is already in the entry
T18 peptide: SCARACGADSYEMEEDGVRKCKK
Excerpt: as §4, §5

[23] = target: T19, EGFRvIII amino acid residues 15 to 37 with Met27 to Ala mutation (human); assay: yeast display flow cytometry, Myc-normalized
T19 construct: mutation is already in the entry
T19 sequence (peptide, as listed by the source, change not shown): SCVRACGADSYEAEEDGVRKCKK
Excerpt: as §4, §5

[24] = target: T20, EGFRvIII amino acid residues 15 to 37 with Cys35 to Ala mutation (human); assay: yeast display flow cytometry, alanine scan
T20 construct: mutation is already in the entry
T20 peptide: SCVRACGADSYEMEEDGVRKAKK
Excerpt: as §4, §5

[25] = target: T21, EGFRvIII amino acid residues 15 to 37 with Lys34 to Ala mutation (human); assay: yeast display flow cytometry, alanine scan
T21 construct: mutation is already in the entry
T21 peptide: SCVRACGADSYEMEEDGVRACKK
Excerpt: as §4, §5

[26] = target: T22, EGFRvIII amino acid residues 15 to 37 with Val32 to Ala mutation (human); assay: yeast display flow cytometry, alanine scan
T22 construct: mutation is already in the entry
T22 peptide: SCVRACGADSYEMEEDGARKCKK
Excerpt: as §4, §5

[27] = target: T23, EGFRvIII amino acid residues 15 to 37 with Glu26 to Ala mutation (human); assay: yeast display flow cytometry, alanine scan
T23 construct: mutation is already in the entry
T23 peptide: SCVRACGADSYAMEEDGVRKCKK
Excerpt: as §4, §5

[28] = target: T24, EGFRvIII amino acid residues 15 to 37 with Arg33 to Ala mutation (human); assay: yeast display flow cytometry, alanine scan
T24 construct: mutation is already in the entry
T24 peptide: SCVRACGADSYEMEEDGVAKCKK
Excerpt: as §4, §5

[29] = target: T25, EGFRvIII amino acid residues 15 to 37 with Lys36 to Ala mutation (human); assay: yeast display flow cytometry, alanine scan
T25 construct: mutation is already in the entry
T25 peptide: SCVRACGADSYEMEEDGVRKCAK
Excerpt: as §4, §5

[30] = target: T1, EGFRvIII, full length, overexpressed on …; assay: cell-based or functional assay; remark: listed apart in the source
[31] = target: T1, EGFRvIII, full length, overexpressed on …; assay: flow cytometry dose-response on U87MG-EGFRvIII cells, apparent Kd
[32] = target: T3, recombinant human wild type EGFR …; assay: ELISA on recombinant antigen
Description: as §1, §2, §3

[33] = target: T5, recombinant human wild type EGFR …; assay: ELISA on recombinant antigen
Description: as §1, §2, §3

[34] = target: T26, wild type human EGFR, full length, overexpressed on U87MG cells (human, UniProt P00533 25-1210); assay: flow cytometry dose-response, U87MG-EGFRwt cells
T26 construct: also called U87MG-EGFR wt; U87 WT
Description: (§6) Prior to analysis, cells were plated such that they were not more than 80% confluent on the day of analysis. Unless otherwise stated, all media are kept are 4° C. and all incubations are performed on wet ice. Cells were washed in PBS, harvested by the addition of cell dissociation buffer (Sigma), centrifuged and resuspended in complete medium at a cell density of 2×10⁶ cells/mL. Fifty μL/well of cells were distributed in a polypropylene v-bottom 96 well plate and serial 1/3 dilutions of purified mAbs starting at 100 nM were added and incubated for 2 hours. […] Cells were washed and re-suspended in medium containing Propidium iodide to exclude dead cells from analysis. Samples were filtered through a 60 μm nylon mesh filter plate (Millipore, Ireland) to remove cell aggregates. Flow cytometry analyses were performed on 2,000 viable single-cells events gated on forward scattering, side scattering parameters and propidium iodide dye exclusion using a BD-LSRFortessa flow cytometer (Becton-Dickinson Biosciences, CA, USA) and a standard filter set using BD FACSDiva™ acquisition software, according to manufacturer's instructions.
(§7) Specific detection of antibody binding was calculated as the mean fluorescent intensity of binding to each primary antibody after background level subtraction of the mean fluorescent intensity of binding of mouse IgG control. The data were analyzed with GraphPad Prism v 6.0 software using one-site specific binding with Hill slope non-linear regression curve fit model to determine Bmax (maximum specific binding) and Kdₐₚₚ (concentration needed to achieve a half-maximum binding at equilibrium) for each mAb tested.

[35] = target: T1, EGFRvIII, full length, overexpressed on …; assay: flow cytometry dose-response on U87MG EGFRvIII cells, apparent Kd (n=3)
Description: Prior to analysis, cells were plated such that they were not more than 80% confluent on the day of analysis. Unless otherwise stated, all media are kept are 4° C. and all incubations are performed on wet ice. Cells were washed in PBS, harvested by the addition of cell dissociation buffer (Sigma), centrifuged and resuspended in complete medium at a cell density of 2×10⁶ cells/mL. Fifty μL/well of cells were distributed in a polypropylene v-bottom 96 well plate and serial 1/3 dilutions of purified mAbs starting at 100 nM were added and incubated for 2 hours. […] Cells were washed and re-suspended in medium containing Propidium iodide to exclude dead cells from analysis. Samples were filtered through a 60 μm nylon mesh filter plate (Millipore, Ireland) to remove cell aggregates. […]
as §7

[36] = target: T1, EGFRvIII, full length, overexpressed on …; assay: flow cytometry dose-response on DKMG EGFRvIII cells, apparent Kd (n=1)
Description: as §6
(§8) These cells were grown in RPMI and 10% fetal bovine serum using standard culturing conditions.

[37] = target: T1, EGFRvIII, full length, overexpressed on …; assay: flow cytometry dose-response on DKMG EGFRvIII cells (n=1)
Description: as §6, §8

[38] = target: T26, wild type human EGFR, full length, …; assay: flow cytometry dose-response, U87MG EGFR wt cells
Description: as §6, §7

B1: F265-9C9 (antibody, V domains shown)
VH: QVQLQQPGAELVKPGASVKLSCKASGYTFTSYWMHWVKQRPGQDLEWIGEIDPSDSYTNYNQKFKGKATLTVDKSSSTAYIQLSSLTSEDSALYYCARFDFAYWGQGTLVTVSA
VL: EIVLTQSPTLMAASPGEKVTITCSVSSSISSSNLHWYQQKSETSPKPWIYDTSNLASGVPIRFSGSGSGTSYSLTISSVEAEDAATYYCQQWSSYPLTFGSGTKLEIK
notes: Mouse hybridoma mAb
% internalization (pHrodo surrogate assay, vs 225 mAb) [1]: 87% | ELISA absorbance 405 nm [2]: 1.2 A405 | ELISA absorbance 405 nm [3]: 0.21 A405 | ELISA absorbance 405 nm [4]: 1.72 A405 | ELISA absorbance 405 nm [5]: 0.064 A405 | binding result [6]: binds | ELISA absorbance 405 nm [7]: 1.29 A405 | ELISA absorbance 405 nm [8]: 0.038 A405 | ELISA absorbance 405 nm [9]: 0.503 A405 | ELISA absorbance 405 nm [10]: 0.003 A405 | % of binding vs wild-type fragment 15-37 [11]: 51.9% | % of binding vs wild-type fragment 15-37 [12]: 152% | % of binding vs wild-type fragment 15-37 [13]: 22.6% | % of binding vs wild-type fragment 15-37 [14]: 138% | % of binding vs wild-type fragment 15-37 [15]: 115% | % of binding vs wild-type fragment 15-37 [16]: 63.2% | % of binding vs wild-type fragment 15-37 [17]: 211% | % of binding vs wild-type fragment 15-37 [18]: 205% | % of binding vs wild-type fragment 15-37 [19]: 160% | % of binding vs wild-type fragment 15-37 [20]: 108% | % of binding vs wild-type fragment 15-37 [21]: 87.1% | % of binding vs wild-type fragment 15-37 [22]: 87.5% | % of binding vs wild-type fragment 15-37 [23]: 159% | binding result [24]: no binding (tested: 0-15% of wild-type binding) | binding result [25]: no binding (tested: 0-15% of wild-type binding) | binding result [26]: no binding (tested: 0-15% of wild-type binding) | binding result [27]: no binding (tested: 0-15% of wild-type binding) | binding result [28]: no binding (tested: 0-15% of wild-type binding) | binding result [29]: no binding (tested: 0-15% of wild-type binding) | % survival (DM1 secondary-conjugate ADC surrogate assay, vs mouse IgG) [30]: 82% | Kd [31]: > 200 nM

B2: 13.1.2 mIgG2a (antibody, V domains shown)
VH: QVQLVESGGGVVQPGRSLRLSCAASGFTFSSYGMHWVRQAPGKGLEWVAVIWYDGSNKYYVDSVKGRFTISRDNSKNTLYLQMNSLRAEDTAVYYCARDGWQQLAPFDYWGQGTLVTVSS
VL: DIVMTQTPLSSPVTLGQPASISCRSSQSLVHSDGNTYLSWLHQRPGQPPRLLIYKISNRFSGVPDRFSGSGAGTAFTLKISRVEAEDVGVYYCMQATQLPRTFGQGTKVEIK
ELISA absorbance 405 nm [2]: 1.29 A405 | ELISA absorbance 405 nm [3]: 0.009 A405 | ELISA absorbance 405 nm [4]: 2.09 A405 | ELISA absorbance 405 nm [5]: 0.007 A405 | binding result [32]: no binding | binding result [33]: no binding | binding result [34]: no binding (tested: 100 nM highest concentration) | ELISA absorbance 405 nm [7]: 1.49 A405 | ELISA absorbance 405 nm [8]: 0.003 A405 | ELISA absorbance 405 nm [9]: 1.5 A405 | ELISA absorbance 405 nm [10]: 0.002 A405 | Kd [31]: 4.2 nM

B3: hFc-4E11 (antibody, human IgG1, kappa, V domains shown)
VH: DVQLQESGPGLVKPSQSLSLTCTVTGYSITSDYAWNWIRQFPGNKLEWMGYIGYNGRTSYNPSLKSRISITRDTSKNQFFLQLNYVTTEDTATFYCARLGRGFAYWGQGTLVTVSA
VL: DILMTQSPSSMSVSLGDTVSITCHASQGINSNIGWLLQKPGKSFKGLIYHGTNLEDGVPSRFSGSGSGTDYSLTISSLESEDFADYYCVQYAQFPYTFGGGTKLEIKR
notes: Chimeric antibody, mouse variable regions on human IgG1 / human kappa, produced in CHO cells; also called chimeric 4E11
Kd [35]: 2.6 nM | Kd [36]: 1.43 nM | Bmax [37]: 12100 | binding result [38]: no binding
